We go through one molecule from patent US20110217334A1.

In this assay the target is serum IgE of birch pollen allergic individuals. In words: ELISA inhibition, Bet v 1a immobilized, BM4 as inhibitor in serial dilutions. (In an ELISA, binding on a coated surface is turned into a signal by an enzyme label.)

B1: BM4 (protein)
chain: GVFNYETETTSVIPAARLFKAFILDGDNLFPKVAPQAISSVENIEGNGGPGTIKKISFPEGFPFKYVKDRVDEVDHTNFKYNYSVIEGGPIGDTLEKISNEIKIVATPSGSTIKSISNKYHTKGDHEVKAEQVKASKEMGETLLRAVESYLLAHSDAYN
With B1, the fold reduced patients' IgE binding capacity compared to Bet v 1a was in the range of 100 to 1000 fold.
